The target in one test is T1, NSH2 domain (Homo sapiens, UniProt Q06124).
T1 construct: The constructs encoding the isolated NSH2 domain, the isolated CSH2 domain, and the NSH2-CSH2 tandem were subcloned in a pET28b+ plasmid vector; made in house; host or cells: Escherichia coli BL21 (DE3)
T1 sequence (Q06124 6-102 limits assumed): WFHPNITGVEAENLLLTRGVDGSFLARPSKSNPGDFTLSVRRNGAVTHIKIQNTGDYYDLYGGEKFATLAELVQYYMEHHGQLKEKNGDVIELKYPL
As to the kind of experiment: Kinetic binding (stopped-flow, FRET Trp-dansyl) to the isolated NSH2 domain. The source says: In analogy to our previous works, we performed kinetic binding experiments by challenging the NSH2-CSH2 tandem with peptides mimicking different portions of Gab2, namely Gab2_608–620 (binding the NSH2 domain) and Gab2_637–649 (binding the CSH2 domain). From now on, the two peptides will be named, respectively, Gab2N and Gab2C, while the peptide mimicking the entire segment of Gab2 binding both SH2 domains, and corresponding to Gab2_608–649, will be named Gab2T. To compare data with our previous works, the experiments were performed in buffer Hepes 50 mM, NaCl 300 mM, 2 mM DTT, pH 7.2, at 10 °C, by following the FRET signal occurring through the excitation of the tryptophan residues in the NSH2-CSH2 tandem with light at 280 nm and following the change in fluorescence of the dansyl group covalently attached to the N-terminus of the peptides. […]
Kinetic experiments of binding between the NSH2, CSH2 and NSH2-CSH2 tandem and the peptides mimicking different portions of Gab2 were measured by monitoring FRET between the tryptophan, acting as a donor, and a dansyl group covalently attached to the N-terminus of the peptides, acting as acceptor. […] The excitation wavelength used was 280 nm while the fluorescence emission was collected using a 475 nm cutoff glass filter. […]

Test [1] addresses T2, NSH2-CSH2 tandem of SHP2 (Homo sapiens, UniProt Q06124).
T2 construct: The constructs encoding the isolated NSH2 domain, the isolated CSH2 domain, and the NSH2-CSH2 tandem were subcloned in a pET28b+ plasmid vector; made in house; host or cells: Escherichia coli BL21 (DE3)
T2 sequence (Q06124 1-220 limits assumed): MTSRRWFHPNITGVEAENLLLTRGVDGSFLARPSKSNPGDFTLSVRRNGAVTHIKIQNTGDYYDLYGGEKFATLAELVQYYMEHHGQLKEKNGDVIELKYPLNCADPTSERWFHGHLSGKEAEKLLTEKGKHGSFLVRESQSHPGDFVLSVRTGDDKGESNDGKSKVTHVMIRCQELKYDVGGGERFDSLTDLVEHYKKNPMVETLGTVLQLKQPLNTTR
As to the kind of experiment: Kinetic displacement of peptide from NSH2-CSH2 tandem by Gab2T. The test is classed as binding. To be noted: for rate constant in displacement by Gab2T: pH 7.2, 10 °C. The source says: (§1) In analogy to our previous works, we performed kinetic binding experiments by challenging the NSH2-CSH2 tandem with peptides mimicking different portions of Gab2, namely Gab2_608–620 (binding the NSH2 domain) and Gab2_637–649 (binding the CSH2 domain). From now on, the two peptides will be named, respectively, Gab2N and Gab2C, while the peptide mimicking the entire segment of Gab2 binding both SH2 domains, and corresponding to Gab2_608–649, will be named Gab2T. To compare data with our previous works, the experiments were performed in buffer Hepes 50 mM, NaCl 300 mM, 2 mM DTT, pH 7.2, at 10 °C, by following the FRET signal occurring through the excitation of the tryptophan residues in the NSH2-CSH2 tandem with light at 280 nm and following the change in fluorescence of the dansyl group covalently attached to the N-terminus of the peptides.
We also resorted to monitoring the binding reaction between the NSH2-CSH2 tandem with the Gab2T peptide. […] To obtain information about the ability of the NSH2-CSH2 to bind Gab2T, we performed kinetic displacement experiments in order to test the ability of Gab2T to displace Gab2N and Gab2C. […] These two values are in great agreement with what was previously calculated in binding experiments of the isolated domains.
Kinetic experiments of binding between the NSH2, CSH2 and NSH2-CSH2 tandem and the peptides mimicking different portions of Gab2 were measured by monitoring FRET between the tryptophan, acting as a donor, and a dansyl group covalently attached to the N-terminus of the peptides, acting as acceptor. […] The excitation wavelength used was 280 nm while the fluorescence emission was collected using a 475 nm cutoff glass filter. […] The observed rate constants were calculated from the average of 3–6 single traces and by fitting the time-course for binding using a single exponential equation y=Aexp−kobs t+c where A is the amplitude of the kinetic trace, kobs the observed rate constant and c the final fluorescence value of the trace. […]

Test [2] concerns the target T2, NSH2-CSH2 tandem of SHP2. Kind of test: Kinetic binding (stopped-flow, FRET Trp-dansyl) to the NSH2-CSH2 tandem. To be noted: for kon (microscopic association rate constant): Hepes 50 mM, NaCl 300 mM, 2 mM DTT.
Source text: as §1
First, to test whether the presence of the contiguous CSH2 affected the affinity of the NSH2 domain for Gab2, we mixed a constant concentration of dansylated Gab2N (1 µM) vs. increasing concentrations of NSH2-CSH2 (ranging from 2 µM to 9 µM). The obtained observed rate constant (kobs) as a function of the concentration of the NSH2-CSH2 tandem was fitted with a linear equation, the slope corresponding to the microscopic association rate constant (kon) and the intercept with the y-axis to the microscopic dissociation rate constant (koff). To directly measure the koff, we performed displacement experiments by rapidly mixing a preincubated complex of NSH2-CSH2 with dansylated Gab2N (both at a constant concentration of 2 µM) versus a high excess of non-dansylated Gab2N (50 µM).
We also resorted to monitoring the binding reaction between the NSH2-CSH2 tandem with the Gab2T peptide. […] To obtain information about the ability of the NSH2-CSH2 to bind Gab2T, we performed kinetic displacement experiments in order to test the ability of Gab2T to displace Gab2N and Gab2C. Thus, in two separate experiments, we rapidly mixed a preincubated complex of NSH2-CSH2 with Gab2N (both at a constant concentration of 2 µM) versus an excess of Gab2T (50 µM) and a preincubated complex of NSH2-CSH2 with Gab2C (both at constant concentrations of 2 µM and 10 µM, respectively) versus an excess of Gab2T (50 µM) (Figure 5C). Importantly, in the two experiments, we could calculate two different rate constants, respectively, of 1.2 ± 0.3 s^−1 in the case of Gab2N, and 82 ± 1 s^−1 in the case of Gab2C. These two values are in great agreement with what was previously calculated in binding experiments of the isolated domains.
Kinetic experiments of binding between the NSH2, CSH2 and NSH2-CSH2 tandem and the peptides mimicking different portions of Gab2 were measured by monitoring FRET between the tryptophan, acting as a donor, and a dansyl group covalently attached to the N-terminus of the peptides, acting as acceptor. The experiments were performed on a single-mixing SX-18 stopped-flow instrument (Applied Photophysics, Leatherhead, UK) recording the change of dansyl emission. The excitation wavelength used was 280 nm while the fluorescence emission was collected using a 475 nm cutoff glass filter. The binding experiments were carried out at 25 °C mixing a constant concentration of dansylated peptide (1 μM) versus increasing concentrations of NSH2, CSH2 and NSH2-CSH2 (ranging from 2 to 10 μM). The buffer used was Hepes 50 mM, NaCl 300 mM, pH 7.2. The observed rate constants were calculated from the average of 3–6 single traces and by fitting the time-course for binding using a single exponential equation y=Aexp−kobs t+c where A is the amplitude of the kinetic trace, kobs the observed rate constant and c the final fluorescence value of the trace. The dependences of kobs as a function of ligand concentrations were fitted with a linear equation kobs=kon ligand+koff where kon is the microscopic association rate constant, and koff the microscopic dissociation rate constant.

For “Gab2C: peptide mimicking Gab2_637–649 (binding the CSH2 domain)”, the “binding to isolated NSH2 domain, kinetic traces” value in the test with NSH2 domain (NSH2 domain mixed with different concentrations of Gab2C peptide) is given as “no kinetic traces could be recorded”. Further, the “rate constant in displacement by Gab2T” value with NSH2-CSH2 tandem of SHP2 [1] (preincubated NSH2-CSH2 (2 µM) with Gab2C (10 µM) vs excess Gab2T (50 µM)) stood at 82 ± 1 s⁻¹.

For “Gab2N: peptide mimicking Gab2_608–620 (binding the NSH2 domain); used dansylated at the N-terminus and non-dansylated”, the “koff (microscopic dissociation rate constant)” value in the test with NSH2 domain (isolated NSH2 domain, pH 7.2) stood at 1.8 ± 0.1 s⁻¹; in the test with NSH2-CSH2 tandem of SHP2 [2] (displacement of preincubated NSH2-CSH2/dansylated Gab2N (both 2 µM) by excess non-dansylated Gab2N (50 µM), pH 7.2, 10 °C) it was 1.8 ± 0.1 s⁻¹. The “kon (microscopic association rate constant)” value in the test with NSH2-CSH2 tandem of SHP2 [2] (dansylated Gab2N 1 µM vs NSH2-CSH2 2 to 9 µM, no Gab2C, pH 7.2, 10 °C, excitation 280 nm, average of 3–6 traces) was determined as 3.73e+07 ± 800000 M⁻¹ s⁻¹; with NSH2-CSH2 tandem of SHP2 [2] (dansylated Gab2N vs NSH2-CSH2, in the presence of 10 µM Gab2C, pH 7.2, 10 °C) it was 1.64e+07 ± 200000 M⁻¹ s⁻¹; with NSH2-CSH2 tandem of SHP2 [2] (dansylated Gab2N vs NSH2-CSH2, in the presence of 20 µM Gab2C, pH 7.2, 10 °C), 1.44e+07 ± 200000 M⁻¹ s⁻¹. In the test with NSH2-CSH2 tandem of SHP2 [2] (no Gab2C, pH 7.2), the “KD, calculated as koff/kon, tandem compared to isolated NSH2 domain” value is “lower KD”. The “rate constant in displacement by Gab2T” value with NSH2-CSH2 tandem of SHP2 [1] (preincubated NSH2-CSH2 with Gab2N (both 2 µM) vs excess Gab2T (50 µM)) came to 1.2 ± 0.3 s⁻¹.

Consider “Gab2T: peptide mimicking the entire segment of Gab2 binding both SH2 domains, corresponding to Gab2_608–649 (STGSVDYLALDFQPSSPSPHRKPSTSSVTSDEKVDYVQVDKE; UniProt Q9UQC2 608-649, looked up, fragment)”, for which, in the test with NSH2-CSH2 tandem of SHP2 [2] (Gab2T not available in dansylated form), the “kinetic binding to NSH2-CSH2, fluorescence change” value is reported as “did not return any change in fluorescence”. In addition, in the test with NSH2-CSH2 tandem of SHP2 [1] (Gab2T 50 µM, pH 7.2), the “displacement of Gab2N and Gab2C from NSH2-CSH2” value was “able to displace both peptides”.
